The results in this text go back to patent US20240052042A1 (Novartis, published 2024).

Assay [1] concerns the target T1, hNPR1-ANP complex (human, UniProt P01160 124-151, limits assumed).
T1 construct: hNPR1 antigen in the presence of ANP; also called hNPR1 + 100 nM ANP
T1 sequence: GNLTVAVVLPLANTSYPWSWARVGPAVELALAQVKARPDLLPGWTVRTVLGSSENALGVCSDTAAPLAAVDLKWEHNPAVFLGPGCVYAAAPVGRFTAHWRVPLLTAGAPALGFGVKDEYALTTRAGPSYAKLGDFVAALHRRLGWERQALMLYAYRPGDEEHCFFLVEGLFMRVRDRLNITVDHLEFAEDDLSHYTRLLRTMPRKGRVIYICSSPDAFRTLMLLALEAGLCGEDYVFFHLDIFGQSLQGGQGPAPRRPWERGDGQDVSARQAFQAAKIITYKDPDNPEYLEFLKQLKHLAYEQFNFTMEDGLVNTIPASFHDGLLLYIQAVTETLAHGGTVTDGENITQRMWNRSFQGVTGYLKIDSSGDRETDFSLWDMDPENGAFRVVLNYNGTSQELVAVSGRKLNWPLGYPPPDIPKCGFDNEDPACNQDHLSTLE
T1 sequence (peptide): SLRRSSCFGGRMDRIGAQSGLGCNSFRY
Nature of the assay: FabCys affinity determination.

Assay [2] addresses T2, rNPR1-ANP complex (rat, UniProt P01160 124-151 (human entry), limits assumed).
T2 construct: rNPR1 antigen in the presence of ANP; also called rNPR1 + 100 nM ANP
T2 sequence: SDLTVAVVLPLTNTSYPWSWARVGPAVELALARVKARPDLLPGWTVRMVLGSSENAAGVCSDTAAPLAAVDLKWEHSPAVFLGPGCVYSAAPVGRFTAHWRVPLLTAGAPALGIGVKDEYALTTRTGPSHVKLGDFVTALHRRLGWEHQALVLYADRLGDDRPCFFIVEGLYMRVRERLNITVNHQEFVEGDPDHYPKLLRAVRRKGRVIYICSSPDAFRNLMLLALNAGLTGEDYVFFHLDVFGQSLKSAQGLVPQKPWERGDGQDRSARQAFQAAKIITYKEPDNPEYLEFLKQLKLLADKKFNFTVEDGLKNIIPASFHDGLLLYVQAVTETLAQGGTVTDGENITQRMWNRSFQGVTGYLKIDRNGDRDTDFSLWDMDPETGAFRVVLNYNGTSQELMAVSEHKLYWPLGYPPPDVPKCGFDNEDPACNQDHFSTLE
T2 sequence (peptide): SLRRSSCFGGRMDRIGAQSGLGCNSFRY
As to the kind of experiment: FabCys affinity determination.

The target in assay [3] is T3, rat NPR1 (rNPR1) (rat, UniProt P18910 29-469, limits assumed).
T3 construct: Soluble antigen
T3 sequence: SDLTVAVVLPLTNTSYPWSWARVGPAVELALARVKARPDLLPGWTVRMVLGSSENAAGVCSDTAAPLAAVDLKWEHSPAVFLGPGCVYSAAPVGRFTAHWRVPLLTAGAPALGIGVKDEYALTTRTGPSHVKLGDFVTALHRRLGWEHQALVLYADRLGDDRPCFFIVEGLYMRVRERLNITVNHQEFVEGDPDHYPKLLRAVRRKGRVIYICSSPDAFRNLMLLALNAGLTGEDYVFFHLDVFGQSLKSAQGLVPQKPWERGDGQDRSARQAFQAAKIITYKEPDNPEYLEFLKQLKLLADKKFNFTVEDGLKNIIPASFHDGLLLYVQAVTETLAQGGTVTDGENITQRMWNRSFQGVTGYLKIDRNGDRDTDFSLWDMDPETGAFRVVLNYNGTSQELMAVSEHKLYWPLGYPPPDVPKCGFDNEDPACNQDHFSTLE
As to the kind of experiment: FabCys affinity determination.

The target in assay [4] is T4, human Natriuretic Peptide Receptor 1 (hNPR1) (human, UniProt P16066 33-473, limits assumed).
T4 construct: pannings used NPR1-hFc; also called NPR1-hFc
T4 sequence: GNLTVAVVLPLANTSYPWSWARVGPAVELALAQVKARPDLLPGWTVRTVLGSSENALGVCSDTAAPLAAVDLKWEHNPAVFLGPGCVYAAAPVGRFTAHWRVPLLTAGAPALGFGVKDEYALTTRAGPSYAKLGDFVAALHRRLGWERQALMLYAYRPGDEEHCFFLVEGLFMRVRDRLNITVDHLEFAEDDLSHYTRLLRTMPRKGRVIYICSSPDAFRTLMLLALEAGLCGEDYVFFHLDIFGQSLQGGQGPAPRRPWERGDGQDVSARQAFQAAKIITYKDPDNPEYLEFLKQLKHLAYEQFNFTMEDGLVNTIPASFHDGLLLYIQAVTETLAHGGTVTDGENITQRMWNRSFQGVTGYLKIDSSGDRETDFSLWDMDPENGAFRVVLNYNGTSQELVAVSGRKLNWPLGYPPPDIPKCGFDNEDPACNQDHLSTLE
As to the kind of experiment: FabCys affinity determination.

Assay [5] deals with T1, hNPR1-ANP complex. Nature of the assay: Octet, FabCys. In general terms: In BLI a coated tip is dipped into the sample, and binding shifts an interference pattern.
The target of assay [6] is T2, rNPR1-ANP complex. Nature of the assay: Octet, FabCys.
For assay [7], the target named is T3, rat NPR1 (rNPR1). As to the kind of experiment: Octet, FabCys.
The target in assay [8] is T1, hNPR1-ANP complex. Nature of the assay: SET, FabCys.
The target in assay [9] is T2, rNPR1-ANP complex. Nature of the assay: SET, FabCys.
The target in assay [10] is T3, rat NPR1 (rNPR1). Nature of the assay: SET, FabCys.
Assay [11] has as its target T4, human Natriuretic Peptide Receptor 1 …. Nature of the assay: SET, FabCys.
Assay [12] concerns the target T5, human NPR1 on CHO-K1 cells (human, UniProt P16066 33-1061).
T5 sequence: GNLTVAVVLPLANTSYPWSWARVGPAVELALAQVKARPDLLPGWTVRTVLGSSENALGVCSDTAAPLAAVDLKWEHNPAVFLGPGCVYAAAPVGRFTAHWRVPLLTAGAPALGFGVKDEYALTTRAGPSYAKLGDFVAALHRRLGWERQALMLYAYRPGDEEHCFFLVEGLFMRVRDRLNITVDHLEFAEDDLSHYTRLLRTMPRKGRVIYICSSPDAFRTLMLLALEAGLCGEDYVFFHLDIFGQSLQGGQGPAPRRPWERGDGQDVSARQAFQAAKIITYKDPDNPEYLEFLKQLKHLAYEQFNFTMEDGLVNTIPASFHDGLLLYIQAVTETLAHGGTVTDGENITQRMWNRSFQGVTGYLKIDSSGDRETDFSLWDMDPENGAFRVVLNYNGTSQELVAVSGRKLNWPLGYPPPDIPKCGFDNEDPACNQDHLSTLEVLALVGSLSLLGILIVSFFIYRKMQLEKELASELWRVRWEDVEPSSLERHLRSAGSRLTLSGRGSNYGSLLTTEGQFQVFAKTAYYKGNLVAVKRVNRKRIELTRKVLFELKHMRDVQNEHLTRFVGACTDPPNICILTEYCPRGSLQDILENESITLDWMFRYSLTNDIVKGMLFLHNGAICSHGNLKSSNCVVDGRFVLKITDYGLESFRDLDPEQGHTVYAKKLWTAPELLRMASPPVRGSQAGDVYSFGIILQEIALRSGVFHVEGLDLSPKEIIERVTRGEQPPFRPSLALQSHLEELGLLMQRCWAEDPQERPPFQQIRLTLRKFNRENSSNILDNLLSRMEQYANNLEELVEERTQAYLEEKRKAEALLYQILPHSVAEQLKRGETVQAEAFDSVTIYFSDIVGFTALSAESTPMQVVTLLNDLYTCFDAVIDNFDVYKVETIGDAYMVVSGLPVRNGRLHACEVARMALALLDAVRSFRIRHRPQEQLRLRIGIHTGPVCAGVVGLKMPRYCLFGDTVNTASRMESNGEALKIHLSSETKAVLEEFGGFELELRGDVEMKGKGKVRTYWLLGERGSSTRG
As to the kind of experiment: cell-based or functional assay.

In assay [13] the target is T1, hNPR1-ANP complex. Nature of the assay: FabCys, parental value by Octet (table comment), as in Table 14.
In assay [14] the target is T2, rNPR1-ANP complex. The assay is described as above.
Assay [15] addresses T4, human Natriuretic Peptide Receptor 1 …. The description is as above.
Assay [16] deals with T1, hNPR1-ANP complex. As to the kind of experiment: FabCys affinity (Octet per Table 18 comment).
The target of assay [17] is T2, rNPR1-ANP complex. As to the kind of experiment: FabCys affinity (Octet per Table 18 comment).
Assay [18] deals with T4, human Natriuretic Peptide Receptor 1 …. As to the kind of experiment: FabCys affinity (Octet per Table 18 comment).
The target of assay [19] is T5, human NPR1 on CHO-K1 cells. Nature of the assay: cell-based or functional assay. This is another data set of the same source.
Assay [20] addresses T1, hNPR1-ANP complex. As to the kind of experiment: FabCys affinity (Biacore per paragraph 323). For orientation: In SPR one partner is held on a chip, and binding of the other changes the refractive index at the surface.
For assay [21], the target named is T2, rNPR1-ANP complex. Nature of the assay: FabCys affinity (Biacore per paragraph 323).
Assay [22] has as its target T1, hNPR1-ANP complex. As to the kind of experiment: FabCys, parental value by Biacore, as in Table 5.
For assay [23], the target named is T2, rNPR1-ANP complex. Nature of the assay: FabCys, parental value by Biacore, as in Table 5.

B1: YY02 (FabCys format) (Fab, V domains shown)
VH: EVQLVESGGGLVKPGGSLRLSCAASGFTFSSYSMNWVRQAPGKGLEWVSSISSSSSYIYYADSVKGRFTISRDNAKNSLYLQMNSLRAEDTAVYYCARSGYRGVYGFDYWGQGTLVTVSS
VL: DIQMTQSPSSVSASVGDRVTITCRASQGISSWLAWYQQKPGKAPKLLIYAASSLQSGVPSRFSGSGSGTDFTLTISSLQPEDFATYYCQQYYHSPLTFGQGTKVEIK
notes: Monovalent FabCys
As for B1, the Kd is 1.1 nM in the assay with hNPR1-ANP complex [1], 4.4 nM with rNPR1-ANP complex [2], 280 nM with rat NPR1 (rNPR1) [3] and 45 nM in [4].

B2: ZZ13 (FabCys format) (Fab, V domains shown)
VH: EVQLVESGGGLVQPGGSLRLSCAASGFTFSRYYINWVRQAPGKGLEWVASIHQHGLETRYVESVKGRFTISRDNAKNSLYLQMNSLRAEDTAVYYCARSLRRRSTEHAGFDVWGQGTLVTVSS
VL: DIQMTQSPSSLSASVGDRVTITCRASQGISNYLAWYQQKPGKVPKLLIYAASTLQSGVPSRFSGSGSGTDFTLTISSLQPEDVATYYCQQADKFPYTFGQGTKVEIK
notes: Monovalent FabCys
As for B2, the dissociation constant Kd with hNPR1-ANP complex [5] worked out at 0.14 nM; with rNPR1-ANP complex [6], 0.1 nM; in the assay with rat NPR1 (rNPR1) [7] it was 66 nM; in the assay with hNPR1-ANP complex [8], 1.3 nM; with rNPR1-ANP complex [9], 1.4 nM; in the assay with rat NPR1 (rNPR1) [10], 2.3 nM. This molecule gave a Kd in [11] of 9.9 nM.

B3: YY04 (FabCys format) (Fab, V domains shown)
VH: EVQLVESGGGLVKPGGSLRLSCAASGFTFSNYWISWVRQAPGKGLEWVGRIKSKTYGGTTDYAEPVKGRFTISRDDSKNTLYLQMNSLKTEDTAVYYCAREKYSIRARGHGDYGFDVWGQGTLVTVSS
VL: DIQMTQSPSSLSASVGDRVTITCRASQGISNYLAWYQQKPGKVPKLLIYAASTLQSGVPSRFSGSGSGTDFTLTISSLQPEDVATYYCQQGYHAPFTFGQGTKVEIK
notes: Monovalent FabCys
As for B3, the “cGMP conc [nM] at 1 µM FabCys, +0.075 nM ANP” value in [12] worked out at 67 nM. The “cGMP conc [nM] at 1 µM FabCys, without ANP” value in assay [12] is 18 nM. Also, the Kd in the assay with hNPR1-ANP complex [13] was 1.1 nM; in the assay with rNPR1-ANP complex [14], 1 nM; in [15], 4.9 nM; with hNPR1-ANP complex [16], 1.1 nM; with rNPR1-ANP complex [17], 1 nM; in [18], 4.9 nM.

B4: WW01 (FabCys format) (Fab, V domains shown)
VH: QVQLLESGGGLVQPGGSLRLSCAASGFTFNTHYIHWVRQAPGKGLEWVSSISGSGSNTYYADSVKGRFTISRDNSKNTLYLQMNSLRAEDTAVYYCARERGYVYYHMFDPWGQGTLVTVSS
VL: DIVLTQSPATLSLSPGERATLSCRASQSITRNYLAWYQQKPGQAPRLLIYGASSRATGIPARFSGSGSGTDFTLTISSLEPEDFAVYYCQQHSMYPRTFGQGTKVEIK
notes: Monovalent disulfide-bridged FabCys
Consider B4, for which, in assay [19], the “cGMP conc [nM] at 2 µM FabCys, +0.075 nM ANP” value was 121 nM. For the same molecule, the “cGMP conc [nM] at 2 µM FabCys, without ANP” value in assay [19] worked out at 30 nM. Further, the Kd with hNPR1-ANP complex [20] is 1.5 nM; with rNPR1-ANP complex [21] it was 2 nM; with hNPR1-ANP complex [22], 1.5 nM; with rNPR1-ANP complex [23], 2 nM.

What is called Kd is a measure of binding affinity in units of concentration.
